Broadly, the stoichiometry N is a count of units in the complex or per binding partner.

Here are results for 1 protein from article PMC2709225 (Nature structural & molecular biology, 2009).

This data set concerns the molecule itself. In words: SEC-MALS. For orientation: In gel filtration, larger molecules generally elute earlier.

B1: stabilised full-length ectodomain of human hedgehog-interacting protein HIP (eHIPS) (domain or fragment, UniProt Q96QV1-1 56-670, looked up)
chain: MSQLELLSGGEMLCGGFYPRLSCCLRSDSPGLGRLENKIFSVTNNTECGKLLEEIKCALCSPHSQSLFHSPEREVLERDLVLPLLCKDYCKEFFYTCRGHIPGFLQTTADEFCFYYARKDGGLCFPDFPRKQVAGPASNYLDQMEEYDKVEEISAAHKHNCFCIQEVVSGLRQPVGALHSGDGSQRLFILEKEGYVKILTPEGEIFKEPYLDIHKLVQSGIKGGDERGLLSLAFHPNYKKNGKLYVSYTTNQERWAIGPHDHILRVVEYTVSRKNPHQVDLRTARVFLEVAELHRKHLGGQLLFGPDGFLYIILGDGMITLDDMEEMDGLSDFTGSVLRLDVDTDMCNVPYSIPRSNPHFNSTNQPPEVFAHGLHDPGRCAVDRHPTDININLTILCSDSNGKNRSSARILQIIKGKDYESEPSLLEFKPFSNGPLVGGFVYRGCQSERLYGSYVFGDRNGNFLTLQQSPVTKQWQEKPLCLGTSGSCRGYFSGHILGFGEDELGEVYILSSSKSMTQTHNGKLYKIVDPKRPLMPEECRATVQPAQTLTSECSRLCRNGYCTPTGKCCCSPGWEGDFCRTAKCEPACRHGGVCVRPNKCLCKKGYLGPQCEQVD
modifications: enzymatically biotinylated within an engineered C-terminal tag (form attached to the SPR surface); fully glycosylated for MALS
As for B1, the “stoichiometry N” value turned out to be 2.
